According to patent US20040086502A1 (Genentech, published 2004):

T1: VEGF(8-109) (UniProt P15692 214-315)
T1 construct: range 8-109; Covalently coupled to the BIACORE chip (EDC/NHS); also called vascular endothelial growth factor
T1 sequence (looked up): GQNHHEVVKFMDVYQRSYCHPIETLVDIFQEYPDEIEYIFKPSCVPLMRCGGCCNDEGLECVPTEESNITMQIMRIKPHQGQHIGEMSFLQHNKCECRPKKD


Legend:
VEGF(8-109) [1] = molecular target: T1, VEGF(8-109); assay: SPR (BIACORE-2000), Fab injected over immobilised VEGF(8-109), 25 C
Protocol: (§1) BIACORE™ Analysis: The VEGF-binding affinities of Fab fragments were calculated from association and dissociation rate constants measured using a BIACORE™-2000 surface plasmon resonance system (BIACORE™, Inc., Piscataway, N.J.). A biosensor chip was activated for covalent coupling of VEGF using N-ethyl-N′-(3-dimethylaminopropyl)-carbodiimide hydrochloride (EDC) and N-hydroxysuccinimide (NHS) according to the supplier's (BIACORE™, Inc., Piscataway, N.J.) instructions. VEGF(8-109) was buffered exchanged into 20 mM sodium acetate, pH 4.8 and diluted to approximately 50 μg/mL. Aliquots of VEGF were injected at a flow rate of 2 μL/min to achieve approximately 700-1400 response units (RU) of coupled protein. A solution of 1 M ethanolamine was injected as a blocking agent.
(§2) For kinetics measurements, two-fold serial dilutions of Fab were injected in PBS/TWEEN buffer (0.05% TWEEN 20™ in phosphate buffered saline) at 25° C. at a flow rate of 10 μL/min. Equilibrium dissociation constants, Kd's from SPR measurements were calculated as koff/kon (Table 17).

VEGF(8-109) [2] = molecular target: T1, VEGF(8-109); assay: SPR (BIACORE-2000); reference (wt) is Y0192
Protocol: as §1, §2

VEGF(8-109) [3] = molecular target: T1, VEGF(8-109); assay: SPR (BIACORE-2000), Kd calculated as koff/kon
Protocol: as §1, §2

[4] = molecular target: T2, VEGF (recombinant; version 1-165) (UniProt P15692 27-191); assay: cell-based or functional assay
[5] = molecular target: T2, VEGF (recombinant; version 1-165); assay: cell-based or functional assay; remark: listed apart in the source

T2 sequence (P15692 other isoform, or with tags, fused parts or gaps limits assumed): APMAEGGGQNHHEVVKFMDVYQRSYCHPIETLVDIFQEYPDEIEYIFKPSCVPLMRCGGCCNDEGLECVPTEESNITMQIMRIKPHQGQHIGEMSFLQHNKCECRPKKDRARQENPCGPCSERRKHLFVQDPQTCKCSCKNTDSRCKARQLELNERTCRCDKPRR

| koff (VEGF(8-109) [1]) | kon (VEGF(8-109) [1]) | Kd(wt)/Kd(mut) (VEGF(8-109) [2]) | Kd (VEGF(8-109) [3]) | inhibition of VEGF-induced growth of HuVECs (alamar blue assay) [4] | IC50 (read off the curve); VEGF-induced HuVEC growth, alamar blue [5] | Binder |
| --- | --- | --- | --- | --- | --- | --- |
| ≤ 1e-05 s⁻¹ | 36000 M⁻¹ s⁻¹ | 9.7 ratio | ≤ 0.3 nM | – | – | Y0239-19 Fab (Fab, V domains shown, also called insertion variant with the VNERK motif) VH: EVQLVESGGGLVQPGGSLRLSCAASGYTFTNYGMNWVRQAPGKGLEWVGWINTYTGEPTYAADFKRRFTFSLDTSKSTAYLQMNSLRAEDTAVYYCAKYPHYYVNERKSHWYFDVWGQGTL VL: DIQLTQSPSSLSASVGDRVTITCRANEQLSNYLNWYQQKPGKAPKVLIYFTSSLHSGVPSRFSGSGSGTDFTLTISSLQPEDFATYYCQQYSTVPWTFGQGTKVEIKR |
| 1.8e-05 s⁻¹ | 38000 M⁻¹ s⁻¹ | 5.8 ratio | 0.5 nM | – | – | Y0239-8 Fab (Fab, V domains shown) VH: EVQLVESGGGLVQPGGSLRLSCAASGYTFTNYGMNWVRQAPGKGLEWVGWINTYTGEPTYAADFKRRFTFSLDTSKSTAYLQMNSLRAEDTAVYYCAKYPHYYLRDGRSSHWYFDVWGQGTL VL: DIQLTQSPSSLSASVGDRVTITCRANEQLSNYLNWYQQKPGKAPKVLIYFTSSLHSGVPSRFSGSGSGTDFTLTISSLQPEDFATYYCQQYSTVPWTFGQGTKVEIKR |
| 1.9e-05 s⁻¹ | 39700 M⁻¹ s⁻¹ | 6 ratio | 0.5 nM | – | – | Y0239-9 Fab (Fab, V domains shown, Only three residues stand in place of G104, although the library was designed with four or five) VH: EVQLVESGGGLVQPGGSLRLSCAASGYTFTNYGMNWVRQAPGKGLEWVGWINTYTGEPTYAADFKRRFTFSLDTSKSTAYLQMNSLRAEDTAVYYCAKYPHYYLGESSHWYFDVWGQGTL VL: DIQLTQSPSSLSASVGDRVTITCRANEQLSNYLNWYQQKPGKAPKVLIYFTSSLHSGVPSRFSGSGSGTDFTLTISSLQPEDFATYYCQQYSTVPWTFGQGTKVEIKR |
| 2.5e-05 s⁻¹ | 44000 M⁻¹ s⁻¹ | 5 ratio | 0.6 nM | – | – | Y0261-6 Fab (Fab, V domains shown) VH: EVQLVESGGGLVQPGGSLRLSCAASGYTFTNYGMNWVRQAPGKGLEWVGWINTYTGEPTYAADFKRRFTFSLDTSKSTAYLQMNSLRAEDTAVYYCAKYPHYYLKDKKSHWYFDVWGQGTL VL: DIQLTQSPSSLSASVGDRVTITCRANEQLSNYLNWYQQKPGKAPKVLIYFTSSLHSGVPSRFSGSGSGTDFTLTISSLQPEDFATYYCQQYSTVPWTFGQGTKVEIKR |
| 0.000128 s⁻¹ | 46000 M⁻¹ s⁻¹ | 1 ratio | 3 nM | – | – | Y0241-7 Fab (Fab, V domains shown, Clone from library YC-86, made on the Y0192 template; The text names point mutations only at T28 and F29; The printed stretch ends in GIN, so residue 34 may also differ from the parent; this change is not applied here) VH: EVQLVESGGGLVQPGGSLRLSCAASGYDWTNYGINWVRQAPGKGLEWVGWINTYTGEPTYAADFKRRFTFSLDTSKSTAYLQMNSLRAEDTAVYYCAKYPHYYGSSHWYFDVWGQGTL VL: DIQLTQSPSSLSASVGDRVTITCRANEQLSNYLNWYQQKPGKAPKVLIYFTSSLHSGVPSRFSGSGSGTDFTLTISSLQPEDFATYYCQQYSTVPWTFGQGTKVEIKR |
| 0.000129 s⁻¹ | 47000 M⁻¹ s⁻¹ | 1.1 ratio | 2.7 nM | – | – | Y0241-6 Fab (Fab, V domains shown, Clone from library YC-86, made on the Y0192 template; The text names point mutations only at T28 and F29; The printed stretch ends in GIN, so residue 34 may also differ from the parent; this change is not applied here) VH: EVQLVESGGGLVQPGGSLRLSCAASGYDYTNYGINWVRQAPGKGLEWVGWINTYTGEPTYAADFKRRFTFSLDTSKSTAYLQMNSLRAEDTAVYYCAKYPHYYGSSHWYFDVWGQGTL VL: DIQLTQSPSSLSASVGDRVTITCRANEQLSNYLNWYQQKPGKAPKVLIYFTSSLHSGVPSRFSGSGSGTDFTLTISSLQPEDFATYYCQQYSTVPWTFGQGTKVEIKR |
| 8.6e-05 s⁻¹ | 47000 M⁻¹ s⁻¹ | 1.6 ratio | 1.8 nM | – | – | Y0242-1 Fab (Fab, V domains shown, Clone from library YC-90, made on the Y0192 template; also called point mutant Y54W) VH: EVQLVESGGGLVQPGGSLRLSCAASGYTFTNYGMNWVRQAPGKGLEWVGWINTWTGEPTYAADFKRRFTFSLDTSKSTAYLQMNSLRAEDTAVYYCAKYPHYYGSSHWYFDVWGQGTL VL: DIQLTQSPSSLSASVGDRVTITCRANEQLSNYLNWYQQKPGKAPKVLIYFTSSLHSGVPSRFSGSGSGTDFTLTISSLQPEDFATYYCQQYSTVPWTFGQGTKVEIKR |
| 0.000164 s⁻¹ | 36000 M⁻¹ s⁻¹ | 0.6 ratio | 4.6 nM | – | – | Y0239-2 Fab (Fab, V domains shown) VH: EVQLVESGGGLVQPGGSLRLSCAASGYTFTNYGMNWVRQAPGKGLEWVGWINTYTGEPTYAADFKRRFTFSLDTSKSTAYLQMNSLRAEDTAVYYCAKYPHYYKNDKSSHWYFDVWGQGTL VL: DIQLTQSPSSLSASVGDRVTITCRANEQLSNYLNWYQQKPGKAPKVLIYFTSSLHSGVPSRFSGSGSGTDFTLTISSLQPEDFATYYCQQYSTVPWTFGQGTKVEIKR |
| 3.4e-05 s⁻¹ | 57000 M⁻¹ s⁻¹ | 4.8 ratio | 0.6 nM | – | – | Y0239-12 Fab (Fab, V domains shown) VH: EVQLVESGGGLVQPGGSLRLSCAASGYTFTNYGMNWVRQAPGKGLEWVGWINTYTGEPTYAADFKRRFTFSLDTSKSTAYLQMNSLRAEDTAVYYCAKYPHYYAHEKKSHWYFDVWGQGTL VL: DIQLTQSPSSLSASVGDRVTITCRANEQLSNYLNWYQQKPGKAPKVLIYFTSSLHSGVPSRFSGSGSGTDFTLTISSLQPEDFATYYCQQYSTVPWTFGQGTKVEIKR |
| 1.1e-05 s⁻¹ | 31100 M⁻¹ s⁻¹ | 8 ratio | 0.36 nM | ~100 fold | ~3 ng/mL | Y0313-2 Fab (Fab, V domains shown, Combines the CDR H3 insertion of Y0239-19 (VNERK) with T28D/N31H; also called CDR combination variant Y0313-2; Insert-Fab Y0313-2) VH: EVQLVESGGGLVQPGGSLRLSCAASGYDFTHYGMNWVRQAPGKGLEWVGWINTYTGEPTYAADFKRRFTFSLDTSKSTAYLQMNSLRAEDTAVYYCAKYPHYYVNERKSHWYFDVWGQGTL VL: DIQLTQSPSSLSASVGDRVTITCRANEQLSNYLNWYQQKPGKAPKVLIYFTSSLHSGVPSRFSGSGSGTDFTLTISSLQPEDFATYYCQQYSTVPWTFGQGTKVEIKR |
| 1.3e-05 s⁻¹ | 25000 M⁻¹ s⁻¹ | 5.8 ratio | 0.5 nM | – | – | Y0240-1 Fab (Fab, V domains shown) VH: EVQLVESGGGLVQPGGSLRLSCAASGYTFTNYGMNWVRQAPGKGLEWVGWINTYTGEPTYAADFKRRFTFSLDTSKSTAYLQMNSLRAEDTAVYYCAKYPHYYLTDHKSHWYFDVWGQGTL VL: DIQLTQSPSSLSASVGDRVTITCRANEQLSNYLNWYQQKPGKAPKVLIYFTSSLHSGVPSRFSGSGSGTDFTLTISSLQPEDFATYYCQQYSTVPWTFGQGTKVEIKR |
